The record followed here is PMC12830966.

The data set has as its target NFIA full-length (human, UniProt Q12857 1-509). In words: BLI. For orientation: Biolayer interferometry detects binding as a change in optical thickness at a sensor tip.

Broadly, the Kd is the constant that tells how readily two partners part at equilibrium. A higher Kd goes with lower affinity.

Sequence of NFIA full-length (Q12857 whole entry): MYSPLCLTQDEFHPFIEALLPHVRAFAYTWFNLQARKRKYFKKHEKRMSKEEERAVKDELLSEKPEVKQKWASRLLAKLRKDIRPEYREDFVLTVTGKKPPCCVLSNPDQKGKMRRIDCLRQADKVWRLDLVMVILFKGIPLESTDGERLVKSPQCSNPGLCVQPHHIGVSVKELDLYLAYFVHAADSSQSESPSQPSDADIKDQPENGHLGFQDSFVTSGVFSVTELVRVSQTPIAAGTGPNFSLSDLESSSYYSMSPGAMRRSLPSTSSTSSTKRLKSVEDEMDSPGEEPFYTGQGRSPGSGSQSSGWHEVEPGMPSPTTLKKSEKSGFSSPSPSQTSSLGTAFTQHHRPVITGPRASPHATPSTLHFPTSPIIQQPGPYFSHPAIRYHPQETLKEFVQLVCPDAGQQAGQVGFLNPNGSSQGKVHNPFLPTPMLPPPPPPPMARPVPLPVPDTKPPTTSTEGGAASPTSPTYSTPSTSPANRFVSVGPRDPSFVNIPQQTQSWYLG

B1: DNA-S (dsDNA)
DNA 1: AGTTGGCAAGTC
DNA 2: GACTTGCCAACT
As to B1, the Kd came out at 20.4 nM.
